{"source": "paper PMC3649970", "about": "“A Unique Spumavirus Gag N-terminal Domain with Functional Properties of Orthoretroviral Matrix and Capsid” (PLoS Pathogens, 2013)", "binders": {"B1": {"name": "PFV Env leader peptide residues 1-20 (peptide, UniProt P14351 1-20, looked up)", "peptide": "MAPPMTLQQWIIWKKMNKAH", "notes": "Envelope (Env) protein of Prototypic Foamy Virus, N-terminal leader peptide region, residues 1-20 (Met1 to His20); the text names M1, A2, P3, P4, M5, T6, L7, Q9, W10, W13, M16, A19, H20; also called Env_(1-20); Env(1-20); source: synthetic peptide, bought HPLC purified: Pepceuticals Ltd"}}, "assay_in_all_cases": "AUC; sedimentation velocity of 75 µM equimolar mixtures of Gag-NtD and Env peptide, absorbance at 280 nm; bound fraction from the integrated absorbance of the 3S species in C(S)", "details_in_all_cases": "both partners purified", "key": {"PFV-Gag-NtD L21S": {"molecular_target": "T1, PFV-Gag-NtD L21S (Prototypic foamy virus (PFV), UniProt P14349 1-179, L21S)", "T1 construct": "Gag of Prototypic Foamy Virus, residues 1-179 (Gag-NtD) with L21S", "T1 sequence (looked up)": "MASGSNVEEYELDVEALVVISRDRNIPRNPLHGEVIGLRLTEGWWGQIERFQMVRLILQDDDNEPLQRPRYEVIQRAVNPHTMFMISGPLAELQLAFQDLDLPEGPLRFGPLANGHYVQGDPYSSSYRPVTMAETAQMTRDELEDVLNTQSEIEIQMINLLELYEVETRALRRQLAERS"}, "PFV-Gag-NtD L21N": {"molecular_target": "T2, PFV-Gag-NtD L21N (Prototypic foamy virus (PFV), UniProt P14349 1-179, L21N)", "T2 construct": "Gag of Prototypic Foamy Virus, residues 1-179 (Gag-NtD) with L21N", "T2 sequence (looked up)": "T1 sequence (looked up) with S21N"}, "PFV-Gag-NtD V14S": {"molecular_target": "T3, PFV-Gag-NtD V14S (Prototypic foamy virus (PFV), UniProt P14349 1-179, V14S)", "T3 construct": "Gag of Prototypic Foamy Virus, residues 1-179 (Gag-NtD) with V14S", "T3 sequence (looked up)": "T1 sequence (looked up) with V14S, S21L"}, "PFV-Gag-NtD V14S/L21S": {"molecular_target": "T4, PFV-Gag-NtD V14S/L21S (Prototypic foamy virus (PFV), UniProt P14349 1-179, V14S | L21S)", "T4 construct": "Gag of Prototypic Foamy Virus, residues 1-179 (Gag-NtD) with V14S and L21S; also called Val14/Leu21 to serine", "T4 sequence (looked up)": "T1 sequence (looked up) with V14S"}, "PFV-Gag-NtD V18S/L21S": {"molecular_target": "T5, PFV-Gag-NtD V18S/L21S (Prototypic foamy virus (PFV), UniProt P14349 1-179, V18S | L21S)", "T5 construct": "Gag of Prototypic Foamy Virus, residues 1-179 (Gag-NtD) with V18S and L21S", "T5 sequence (looked up)": "T1 sequence (looked up) with V18S"}, "[1]": {"molecular_target": "T6, PFV-Gag-NtD (amino terminal domain of Prototypic Foamy Virus Gag, residues 1-179) (Prototypic foamy virus (PFV), UniProt P14349 1-179)", "T6 construct": "source: E. coli Rosetta 2 (DE3), purified (Ni-NTA, Superdex 200 SEC); not shown: His-tag, N-terminal, kept", "T6 sequence": "T1 sequence (looked up) with S21L"}, "PFV-Gag-NtD V18S": {"molecular_target": "T7, PFV-Gag-NtD V18S (Prototypic foamy virus (PFV), UniProt P14349 1-179, V18S)", "T7 construct": "Gag of Prototypic Foamy Virus, residues 1-179 (Gag-NtD) with V18S", "T7 sequence (looked up)": "T1 sequence (looked up) with V18S, S21L"}, "PFV-Gag-NtD V14S/V18S": {"molecular_target": "T8, PFV-Gag-NtD V14S/V18S (Prototypic foamy virus (PFV), UniProt P14349 1-179, V14S | V18S)", "T8 construct": "Gag of Prototypic Foamy Virus, residues 1-179 (Gag-NtD) with V14S and V18S", "T8 sequence (looked up)": "T1 sequence (looked up) with V14S, V18S, S21L"}}, "note": "Changes are numbered by the printed parent chain.", "data": [{"binder": "B1", "values": [{"measurement": "fold decrease of affinity against wt PFV-Gag-NtD", "setting": "PFV-Gag-NtD L21S", "value": 5, "unit": "fold"}, {"measurement": "binding result", "setting": "PFV-Gag-NtD L21N", "value": "binds"}, {"measurement": "binding result", "setting": "PFV-Gag-NtD V14S", "value": "binds"}, {"measurement": "fold reduction in binding against wt PFV-Gag-NtD", "setting": "PFV-Gag-NtD V14S/L21S", "value": "~20", "unit": "fold"}, {"measurement": "binding result", "setting": "PFV-Gag-NtD V18S/L21S", "value": "binds"}, {"measurement": "Ka", "setting": "[1]", "value": 130000, "unit": "M⁻¹"}, {"measurement": "fold decrease of affinity against wt PFV-Gag-NtD", "setting": "PFV-Gag-NtD V18S", "value": 2, "unit": "fold"}, {"measurement": "binding result", "setting": "PFV-Gag-NtD V14S/V18S", "value": "binds"}]}]}
